Laboratory results reported in patent US20220009992A1 (published 2022).
Each block holds one binder with its values, some of them ahead of it.

Columns and labels:
[1] = molecular target: T1, mesothelin (human MSLN, isoform 1, SEQ ID NO:50) peptide on HLA-A*02:01 (human); assay: multimer staining
T1 peptide: SLLFLLFSL

[2] = molecular target: T2, mesothelin (human MSLN, isoform 1, SEQ ID NO:50) peptide on HLA-A*02:01 (human); assay: multimer staining
T2 peptide: VLPLTVAEV

[3] = molecular target: T3, MLEC peptide on HLA-A*02:01 (human); assay: cytokine release
T3 peptide: VLVLKFAEV

[4] = molecular target: T4, IN80B peptide on HLA-A*02:01 (human); assay: cytokine release
T4 peptide: MLPLPVAEG

[5] = molecular target: T5, OR2J2 peptide on HLA-A*02:01 (human); assay: cytokine release
T5 peptide: VLALGIAEC

[6] = molecular target: T6, ULK1 peptide on HLA-A*02:01 (human); assay: cytokine release
T6 peptide: VLYLKVAEL

[7] = molecular target: T7, AL1L1 peptide on HLA-A*02:01 (human); assay: cytokine release
T7 peptide: VLELTEAEL

[8] = molecular target: T8, CHPF2 peptide on HLA-A*02:01 (human); assay: cytokine release
T8 peptide: VLPLIVAEA

[9] = molecular target: T9, YN010 peptide on HLA-A*02:01 (human); assay: cytokine release
T9 peptide: VLALWEAEV

[10] = molecular target: T10, GALP peptide on HLA-A*02:01 (human); assay: cytokine release
T10 peptide: VLLLSLAET

[11] = molecular target: T11, LRCH3 peptide on HLA-A*02:01 (human); assay: cytokine release
T11 peptide: DLPLRVAEI

[12] = molecular target: T12, CEAM3 peptide on HLA-A*02:01 (human); assay: cytokine release
T12 peptide: SMPLSVAEG

[13] = molecular target: T13, OR2J1 peptide on HLA-A*02:01 (human); assay: cytokine release
T13 peptide: VLALGTAEC

[14] = molecular target: T14, ADPRH peptide on HLA-A*02:01 (human); assay: cytokine release
T14 peptide: VMHLATAEA

[15] = molecular target: T15, CHPF2 peptide on HLA-A*02:01 (human); assay: cytokine release
T15 peptide: VLPLLVAEA

[16] = molecular target: T16, EHF (peptide #10) peptide on HLA-A*02:01 (human); assay: cytokine release
T16 peptide: VLLLSLAEI

[17] = molecular target: T17, DNHD1 peptide on HLA-A*02:01 (human); assay: cytokine release
T17 peptide: VLELLLAEL

binding result [1]: recognises
B1: Meso20-3B (TCR, V domains shown)
Valpha: GQSLEQPSEVTAVEGAIVQINCTYQTSGFYGLSWYQQHDGGAPTFLSYNALDGLEETGRFSSFLSRSDSYGYLLLQELQMKDSASYFCAVNDASKIIFGSGTRLSIRP
Vbeta: DAGVIQSPRHEVTEMGQEVTLRCKPISGHDYLFWYRQTMMRGLELLIYFNNNVPIDDSGMPEDRFSAKMPNASFSTLKIQPSEPRDSAVYFCASSFTSGSYEQYFGPGTRLTVT

binding result [2]: recognises
binding result [3]: no recognition
binding result [4]: no recognition
binding result [5]: no recognition
binding result [6]: no recognition
binding result [7]: no recognition
binding result [8]: no recognition
binding result [9]: no recognition
binding result [10]: no recognition
binding result [11]: no recognition
binding result [12]: no recognition
binding result [13]: no recognition
binding result [14]: no recognition
binding result [15]: no recognition
binding result [16]: no recognition
binding result [17]: no recognition
B2: Meso530-11A (TCR, V domains shown)
Valpha: GEDVEQSLFLSVREGDSSVINCTYTDSSSTYLYWYKQEPGAGLQLLTYIFSNMDMKQDQRLTVLLNKKDKHLSLRIADTQTGDSAIYFCAETPGYGGATNKLIFGTGTLLAVQP
Vbeta: DTEVTQTPKHLVMGMTNKKSLKCEQHMGHRAMYWYKQKAKKPPELMFVYSYEKLSINESVPSRFSPECPNSSLLNLHLHALQPEDSALYLCASSHGSLNTEAFFGQGTRLTVV

binding result [2]: recognises
binding result [3]: no recognition
binding result [4]: no recognition
binding result [5]: no recognition
binding result [6]: no recognition
binding result [7]: no recognition
binding result [8]: no recognition
binding result [9]: no recognition
binding result [10]: no recognition
binding result [11]: no recognition
binding result [12]: no recognition
binding result [13]: no recognition
binding result [14]: no recognition
binding result [15]: no recognition
binding result [17]: no recognition
B3: Meso530-11B (TCR, V domains shown)
Valpha: KQEVTQIPAALSVPEGENLVLNCSFTDSAIYNLQWFRQDPGKGLTSLLLIQSSQREQTSGRLNASLDKSSGRSTLYIAASQPGDSATYLCAVRLLFAQGGSEKLVFGKGTKLTVNP
Vbeta: ETGVTQSPTHLIKTRGQQVTLRCSSQSGHNTVSWYQQALGQGPQFIFQYYREEENGRGNFPPRFSGLQFPNYSSELNVNALELDDSALYLCASSFAGGRSDTQYFGPGTRLTVL
